Publication PMC4288923

Columns and labels:
[1] = molecular target: Slr1270 protein from Synechocystis 6803, refolded, C-terminal His tag (Synechocystis 6803); assay: SEC
[2] = molecular target: Slr1270 protein from Synechocystis 6803, refolded, C-terminal His tag (Synechocystis 6803); assay: SDS-PAGE without boiling
[3] = molecular target: Slr1270 protein from Synechocystis 6803, refolded, C-terminal His tag (Synechocystis 6803); assay: native gel or EMSA

Measured: stoichiometry N

Slr1270 protein from Synechocystis 6803, refolded, C-terminal His tag (natural protein)
3: all assays above
